Test results reported in patent US20260116980A1.

How the values were obtained:
B7H3 on H358 tumor cells [1] = target: B7H3 on H358 tumor cells (UniProt Q5ZPR3); assay: flow cytometry on H358 cells, His-tag antibody iFluor 488 detection; MFImax of the four parameter fit
B7H3 on H358 tumor cells [2] = target: B7H3 on H358 tumor cells (UniProt Q5ZPR3); assay: flow cytometry on H358 cells, His-tag antibody iFluor 488 detection, four parameter logistic model
B7H3 on H358 tumor cells [3] = target: B7H3 on H358 tumor cells (UniProt Q5ZPR3); assay: FACS on H358 cells, 1 h on ice, fluorescence-labelled anti-human Fc

B7H3 on H358 tumor cells, sequence (Q5ZPR3 29-534): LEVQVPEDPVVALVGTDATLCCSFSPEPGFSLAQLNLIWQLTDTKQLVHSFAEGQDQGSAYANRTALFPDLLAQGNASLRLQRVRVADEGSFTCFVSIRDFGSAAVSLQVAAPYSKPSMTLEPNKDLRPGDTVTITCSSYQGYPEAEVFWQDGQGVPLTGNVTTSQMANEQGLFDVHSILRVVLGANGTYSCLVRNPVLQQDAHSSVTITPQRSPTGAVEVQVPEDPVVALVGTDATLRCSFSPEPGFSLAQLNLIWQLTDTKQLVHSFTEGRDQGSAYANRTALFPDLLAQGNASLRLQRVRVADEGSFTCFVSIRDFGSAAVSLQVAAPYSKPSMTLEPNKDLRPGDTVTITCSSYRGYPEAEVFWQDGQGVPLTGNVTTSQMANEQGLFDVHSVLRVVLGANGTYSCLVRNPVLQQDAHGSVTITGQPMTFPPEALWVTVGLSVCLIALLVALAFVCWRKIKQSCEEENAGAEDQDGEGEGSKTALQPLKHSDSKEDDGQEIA

Row | Binder | MFI (B7H3 on H358 tumor cells [1]) | EC50 (B7H3 on H358 tumor cells [2]) | EC50 (read off the curve) (B7H3 on H358 tumor cells [3])
1 | scFv of BGA-6938 VL-VH (scFv) scFv: EIVLTQSPGTLSLSPGERATLSCRTSQSINAILLAWYQQKPGQAPRLLIYGASSRATGIPDRFSGSGSGTDFTLSISRLEPEDFAVYYCQQYGSSPRTFGQGTKVEIKGGGGSGGGGSGGGGSGGGGSQVQLQESGPGLVKPSGTLSLTCAVSGGSISTSNYWNWVRQSPGKGLEWIGEIYPTGNTNYSPSLKSRVTISIDKSKNQFSLKLNSVTAADTAVYYCARGYNWFDPWGQGTLVTVSSHHHHHH | 782000 | 2.05 nM | 
2 | BGA-6938 in wildtype IgG1/kappa format (antibody, V domains shown) VH: QVQLQESGPGLVKPSGTLSLTCAVSGGSISTSNYWNWVRQSPGKGLEWIGEIYPTGNTNYSPSLKSRVTISIDKSKNQFSLKLNSVTAADTAVYYCARGYNWFDPWGQGTLVTVSS VL: EIVLTQSPGTLSLSPGERATLSCRTSQSINAILLAWYQQKPGQAPRLLIYGASSRATGIPDRFSGSGSGTDFTLSISRLEPEDFAVYYCQQYGSSPRTFGQGTKVEIKR |  |  | 0.5 nM
